T1: TNFR-Fc (UniProt P20333 23-257, limits assumed)
T1 construct: Printed only as TNFR-Fc; not shown: Fc part
T1 sequence (looked up): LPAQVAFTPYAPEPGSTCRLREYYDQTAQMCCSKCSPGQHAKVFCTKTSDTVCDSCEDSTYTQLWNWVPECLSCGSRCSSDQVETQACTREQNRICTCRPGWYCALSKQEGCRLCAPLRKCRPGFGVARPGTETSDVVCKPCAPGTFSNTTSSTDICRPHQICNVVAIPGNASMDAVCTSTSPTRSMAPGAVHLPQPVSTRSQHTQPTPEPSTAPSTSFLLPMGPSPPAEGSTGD

T2: cynomolgus TNFR2-His tagged protein (cynomolgus, UniProt A0A2K5VET2 132-366)
T2 construct: also called Cyno TNFR2; cynomolgus TNFR2 protein; not shown: His tag
T2 sequence: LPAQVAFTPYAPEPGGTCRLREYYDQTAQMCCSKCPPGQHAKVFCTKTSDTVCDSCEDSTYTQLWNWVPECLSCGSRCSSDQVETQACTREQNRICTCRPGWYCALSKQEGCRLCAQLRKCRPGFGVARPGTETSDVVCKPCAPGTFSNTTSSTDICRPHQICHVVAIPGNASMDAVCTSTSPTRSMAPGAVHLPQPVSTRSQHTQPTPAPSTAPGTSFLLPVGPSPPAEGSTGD

T3: human TNFR2 expressed on cells (human, UniProt P20333 23-461)
T3 construct: whole, on cells; also called hTNFR2 (cell); CHO-TNFR2
T3 sequence (looked up): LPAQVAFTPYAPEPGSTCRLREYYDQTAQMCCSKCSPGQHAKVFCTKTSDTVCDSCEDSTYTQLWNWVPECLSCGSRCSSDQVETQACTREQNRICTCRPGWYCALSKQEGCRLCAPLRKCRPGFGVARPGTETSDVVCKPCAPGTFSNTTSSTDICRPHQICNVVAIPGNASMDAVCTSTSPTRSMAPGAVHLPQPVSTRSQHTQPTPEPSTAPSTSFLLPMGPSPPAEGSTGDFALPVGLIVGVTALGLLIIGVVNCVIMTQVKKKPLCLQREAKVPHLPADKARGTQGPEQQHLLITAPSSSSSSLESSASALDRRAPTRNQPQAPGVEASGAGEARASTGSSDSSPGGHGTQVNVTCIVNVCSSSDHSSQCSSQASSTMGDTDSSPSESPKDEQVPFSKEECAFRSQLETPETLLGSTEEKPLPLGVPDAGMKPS

T4: human TNFR2-His tagged protein (soluble) (human, UniProt P20333 23-257)
T4 construct: also called hTNFR2 (soluble); soluble TNFR2-His; not shown: His tag
T4 sequence (looked up): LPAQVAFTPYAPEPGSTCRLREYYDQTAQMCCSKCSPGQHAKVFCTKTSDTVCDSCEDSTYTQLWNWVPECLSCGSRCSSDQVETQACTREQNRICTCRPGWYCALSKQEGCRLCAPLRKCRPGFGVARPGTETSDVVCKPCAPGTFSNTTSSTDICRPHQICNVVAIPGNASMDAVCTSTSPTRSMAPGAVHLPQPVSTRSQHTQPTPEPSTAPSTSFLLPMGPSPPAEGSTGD

T5: soluble mouse TNFR2 (mouse, UniProt P25119 23-258, limits assumed)
T5 sequence (looked up): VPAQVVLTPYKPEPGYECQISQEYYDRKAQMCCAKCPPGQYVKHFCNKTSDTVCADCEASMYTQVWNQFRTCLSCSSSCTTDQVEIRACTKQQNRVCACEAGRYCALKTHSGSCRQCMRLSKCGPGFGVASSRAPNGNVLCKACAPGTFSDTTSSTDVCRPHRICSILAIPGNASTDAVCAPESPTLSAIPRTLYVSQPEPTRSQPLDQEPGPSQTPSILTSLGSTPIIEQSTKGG


Columns and labels:
TNFR-Fc = target: T1, TNFR-Fc; experiment: TNF-α blocking ELISA on coated TNFR-Fc
Description: (§1) In FIGS. 3A-3B, human (3A) or cynomolgus (3B) TNFR2-His tagged protein was coated on 96-well ELISA plates at 1 μg/mL and incubated overnight at 4° C. Plates were washed and blocked using 1% BSA. Antibodies were added for 1 hour at room temperature (RT), washed, and detected using anti-Human HRP. Assay was developed using TMB substrate for 3-5 minutes. In FIG. 3C, FACS binding was performed on CHO cells that were engineered to express human TNFR2. Briefly, antibodies were incubated with 200,000 cells in MACS buffer for 1 hour followed by wash and detection using anti-human IgG BV421 for 20 minutes. Samples were analyzed using Cytoflex or MACSQuant flow cytometers. In FIG. 3D, ligand blocking ELISA was performed by coating plates with 1 ug/mL TNFR-Fc overnight at 4° C. Plates were washed, blocked and antibodies were incubated for 1 hr at RT. […] Assay was developed using TMB substrate for 5-7 minutes.

[1] = target: T2, cynomolgus TNFR2-His tagged protein; experiment: ELISA on coated cynomolgus TNFR2-His
Description: as §1

[2] = target: T3, human TNFR2 expressed on cells; experiment: flow cytometry on CHO cells expressing human TNFR2
Description: as §1

[3] = target: T4, human TNFR2-His tagged protein (soluble); experiment: ELISA on coated human TNFR2-His
Description: as §1

soluble mouse TNFR2 = target: T5, soluble mouse TNFR2; experiment: binding screen on soluble mouse TNFR2 (mouse cross-reactivity)
[4] = target: T2, cynomolgus TNFR2-His tagged protein; experiment: ELISA, cynomolgus TNFR2
[5] = target: T4, human TNFR2-His tagged protein (soluble); experiment: ELISA, soluble human TNFR2
[6] = target: T3, human TNFR2 expressed on cells; experiment: cell binding on TNFR2-overexpressing (OE) cells
[7] = target: T3, human TNFR2 expressed on cells; experiment: flow cytometry, cell-expressed human TNFR2

IC50 (TNFR-Fc) | EC50 [1] | EC50 [2] | EC50 [3] | binding result (soluble mouse TNFR2) | EC50 [4] | EC50 [5] | Kd [6] | EC50 [7] | Binder
6.62 nM | 60 nM | 0.11 nM | 0.313 nM | no binding |  |  |  |  | chimeric antibody clone 127 (rab600_23_127) (antibody, V domains shown) VH: QEQLEESGGDLVKPEGSLTLTCTASGFDFSVNAMCWVRQAPGKGPEWIAYISNADGSTHYASWVNGRFTISRSTSLNTVTLQMTRLTVSDTATYFCARAPYAGYTGYGYLNLWGPGTLVTVSS VL: DVVMTQTPASVSGPVGGTVTIKCQASQNIDSDLAWYQQKPGQRPKLLIYDASKLASGVPSRFSGSGYGTEFTLTISGVQCEDAATYYCQYTYYINTYGGAFGGGTEVVVK
2.22 nM | 0.315 nM | 0.485 nM | 0.325 nM | no binding |  |  |  |  | chimeric antibody clone 107 (rab600_23_107) (antibody, V domains shown) VH: QSVEESGGRLVTPGTPLTLTCTVSGFSLSSNAISWVRQAPGKGLEWIGIINTYDNTAYATWAKGRFSISRTSTTVDLKITSPATKDTATYFCARDVHNNVVPYYFDMWGQGTLVTVSS VL: AYDMTQTPATVEVAVGGTVTINCQASQSISNLLAWYQQKPGQRPKLLIYDTSDLASGVPSRFSGSGSGTEYTLTITGVECADAATYYCQQGYSSSNIDNVFGGGTEVVVK
2.74 nM | 0.099 nM | 0.147 nM | 0.094 nM | no binding |  |  |  |  | chimeric antibody clone 4 (rab600_23_4) (antibody, V domains shown) VH: QSVEESGGRLVTPGTPLTLTCTVSGIDLSSYTMGWVRQAPGKGLEYIGFISSSGHTYYANWAKGRFTISKTSSTTVDLKMTSLTTEDTATYFCARDGGYGGYDYTGIFNLWGQGTLVTVSS VL: DIVMTQTASPVSAAVGGTVTIKCQATESISSWLAWYQQKPGQPPKLLIYGASTLESGVPSRFSGSGSGTEFTLTISGVQCDDAATYYCQQGYIYTNVDNTFGGGTEVVVK
4.55 nM | 0.327 nM | 0.18 nM | 0.256 nM | no binding |  |  |  |  | chimeric antibody clone 108 (taken as rab600_25_108) (antibody, V domains shown) VH: QSVEESGGRLVTPGTPLTLTCKASGFSLSDYFMTWVRQAPGKGLEWIGIINTGGDSYYATWAKGRFTISKTSTTVDLKISSPTTEDTATYFCARDTGYGGYDYAGSFDPWGPGTLVTVSS VL: AIKMTQTPASVSEPVGGTVTIKCQASENINSWLAWYQQKPGQPPKLLIYEASKLASGVPSRFKGSGSGTQFTLTISDLECADAATYYCQQGYIYIDVGNIFGGGTEVVVK
0.741 nM | 0.057 nM | 0.073 nM | 0.067 nM | no binding |  |  |  |  | chimeric antibody clone 57 (rab600_23_57) (antibody, V domains shown) VH: QSVEESGGRLVTPGTPLTLTCTVSGFSLSSYAMGWVRQAPGKGLEWIGIIGSGGNTYYATWAKGRFTISRTSTTVDLRITSPTTEDTATYFCARDVGYGDYDALDLWGQGTLVTVSS VL: DVVMTQTPSSVSEPVGGTVTIKCQASEEISSNLAWYQQKPGQPPKLLMYAASNLASGVSSRLKGSRSGTDYTLTISGVQCDDAATYFCQCTYIGSGYVVAFGGGTEVVVK
100 nM | 0.327 nM | 0.0901 nM | 0.207 nM | no binding |  |  |  |  | chimeric antibody clone 102 (rab600_23_102) (antibody, V domains shown) VH: QSVEESGGRLVTPGTPLTLTCTASGFSLSTYDMIWVRQAPGKGLEWIGYIWSDGITDYASWAKGRFTISKTSTTVDLKVTSPTTEDTATYFCARDVGYAGYGYYFDLWGQGTLVTVSS VL: ALVMTQTPASVEVAVGGTVTIKCQASQSITNYLAWYRQKPGQPPKLLIYGASKLASGVPSRFSGSGSGTEYTLTISGVQCDDAATYYCQQGYTSSNVDNPFGGGTEVVVK
3.06 nM | 0.191 nM | 0.086 nM | 0.131 nM | no binding |  |  |  |  | chimeric antibody clone 92 (rab600_25_92) (antibody, V domains shown) VH: QSVEESGGRLVKPDETLTLICTVSGFSLSSHHMIWVRQAPGEGLEGIGIIDAGSGSTYYASWAKGRFTISRTSTTVDLKIASPTTEDTATYFCARGGLTESLGTYFDLWGPGTLVTVSS VL: DIVMTQTPASVEAAVGGTVTIKCQASESIDSGLAWYQQKPGQRPKLLIYDSSTLASGVPSRFKGSGSGTDFTLTISDLECADAATYYCQSNYDTGSSVYDWGSFGGGTEVVVK
11.2 nM | 0.184 nM | 0.091 nM | 0.242 nM | no binding |  |  |  |  | chimeric antibody clone 42 (rab600_25_42) (antibody, V domains shown) VH: QSLEESGGRLVTPGTPLTLTCTVSGIDLSTYAMIWVRQAPGKGLEYIGFIRPGGSAWYASWAKGRFTISKTSTTVDREITSPTTEDTATYFCATYDTYGYGDTRLWGPGTLVTVSS VL: AYDMTQTPASVEVAVGGTVTIKCQASESIFSYLAWYQQKPGQRPKLLIYYASTLASGVPSRFKGSGSGTQFTLTISGVECADAATYYCQQGYDFSAVDNVFGGGTEVVVK
6.09 nM | 0.0396 nM | 0.17 nM | 0.14 nM | no binding |  |  |  |  | chimeric antibody clone 11D7.1 (rab600_23_11D7.1) (antibody, V domains shown, also called rab600_23_HD7.1) VH: QEQLEESGGGLVQPGGSLKLSCKASGFDFSRYYMSWVRQAPGKGLEWIGYIDPIFGNTYYASWVNGRFTISSHNAQNTLYLQLNNLTAADTATYFCARDGDAGYDGYGYGTDLWGPGTLVTVSS VL: QVLTQTPSSVSEPVGGTVTINCQASENIYSGLAWYQQKPGQPPKLLIVSAFTLASGVPSRFKGSGTGTEFTLTISGVQCDDAATYYCQTYYYGSVTYFNAFGGGTEVVVK
 |  |  |  |  | 0.113 nM | 0.053 nM | 1.05 nM | 1.38 nM | humanized antibody clone 25-10 (h600_24_10) (antibody, V domains shown, its CDRs are those of rab600_25_10) VH: EVQLLESGGGLVQPGGSLRLSCAASGIDLSRYAMAWVRQAPGKGLEWVGYIDTGDSTYYATWAKGRFTISRDNSKNTLYLQMNSLRAEDTAVYYCTNVGVRMYLWGQGTLVTVSS VL: DIQMTQSPSSLSASVGDRVTITCQASQSISSYLSWYQQKPGKAPKLLIYRASTLESGVPSRFSGSGSGTDFTLTISSLQPEDFATYYCQCGYYGGSYIGAFGGGTKVEIK
 |  |  |  |  | 0.107 nM | 0.097 nM | 0.468 nM | 0.57 nM | humanized antibody clone 25-103 (h600_24_103) (antibody, V domains shown, its CDRs are those of rab600_25_103) VH: EVQLVESGGGLVQPGGSLRLSCAASGIDLSSYAMGWVRQAPGKGLEWVGFIDTGGSTYYANWAKGRFTISRDNSKNTLYLQMNSLRAEDTAVYYCANVGARMYLWGQGTLVTVSS VL: DIQMTQSPSSLSASVGDRVTITCQASQSISNLLAWYQQKPGKAPKLLIYRASTLESGVPSRFSGSGSGTDFTLTISSLQPEDFATYYCQCSYYGGSYIGAFGGGTKVEIK
 |  |  |  |  | 0.056 nM | 0.072 nM |  | 109 nM | humanized antibody clone 37 (taken as h600_25_37) (antibody, V domains shown) VH: EVQLVESGGGLVQPGGSLRLSCAASGIDLSNYAMGWVRQAPGKGLEWVGSRRTDGITYYANWAEGRFTISRDNSKNTLYLQMNSLRAEDTAVYYCGRDVGGEGGWYFNLWGQGTLVTVSS VL: DIQMTQSPSTLSASVGDRVTITCQASQSINIYLAWYQQKPGKAPKLLIYDASKLASGVPSRFSGSGSGTEFTLTISSLQPDDFATYYCQQGINNIGFGGGTKVEIK

Reference: patent US20220372154A1 (APEXIGEN, published 2022)
